1 molecule from US20070105771A1 can be followed below.

What all share (assay): peptide microarray
For test [1], the target named is T1, human CD26-derived 13 mer peptide 29 (human).
T1 sequence (peptide): DYSISPDGQFILL

The target in test [2] is T2, human CD26-derived 13 mer peptide 69 (human).
T2 sequence (peptide): RITWTGKEDIIYN

The target of test [3] is T3, human CD26-derived 13 mer peptide 13 (human).
T3 sequence (peptide): QENNILVFNAEYG

Test [4] has as its target T4, human CD26-derived 13 mer peptide 16 (human).
T4 sequence (peptide): VFNAEYGNSSVFL

For test [5], the target named is T5, human CD26-derived 13 mer peptide 91 (human).
T5 sequence (peptide): FNDTEVPLIEYSF

In test [6] the target is T6, human CD26-derived 13 mer peptide 31 (human).
T6 sequence (peptide): SPDGQFILLEYNY

Test [7] has as its target T7, human CD26-derived 13 mer peptide 125 (human).
T7 sequence (peptide): GDHYLCDVTWATQ

The target of test [8] is T8, human CD26-derived 13 mer peptide 121 (human).
T8 sequence (peptide): TAPASMLIGDHYL

B1: rhuMAb 411 (antibody, human IgG1, kappa, V domains shown)
VH: EVQLVESGAGVKQPGGTLRLTCTASGFSLTTYGVHWVRQAPGKGLEWVGVIWGDGRTDYDAAFMSRVTISKDTSKSTVYLQMNSLRAEDTAVYYCMRNRHDWFDYWGQGTTVTVSS
VL: DILLTQSPSSLSATPGERATITCRASQGIRNNLNWYQQKPGQAPRLLIYYSSNLQSGVPSRFSGSGSGTDFTLTISRLQPEDVAAYYCQQSIKLPFTFGSGTKVEIKR
Regarding B1, the Mean Signal Value in test [1] is 2.16; in test [2], 2.45; in test [3], 1.94; in test [4] it was 1.92; in test [5], 2.3; in test [6] it was 2.33. Moreover, the Mean Signal Value in test [7] worked out at 1.8; in test [8] it was 2.08.
